Measurements published in the supplement of paper PMC10126150.
± gives the standard deviation of the averaged measurements.

Test system: ATP
Assay: switch fluorescence ratio, 500 uM ATP over buffer (Cy3 cluster intensity, sum of 5 cycles each) (fold (ratio)); higher = stronger signal-on switching upon ATP binding; sequences stand for … in TCGTCGGCAGCGTCAGATGTGTATAAGAGACAGTTTTTTTTTTTTTTTTTTTTTTTTT…TC
Settings: aptamer strand: ATP DNA aptamer (quencher-CACCTGGGGGAGTATTGCGGAGGAAGG + anchor), 100 nM annealed; ATP concentration: 500 uM
In short: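 Imaging in selection buffer was followed by imaging after 15 min with 500 uM ATP at 22 °C, for Cy3-labelled switching-strand clusters annealed to 100 nM quencher-labelled ATP aptamer on a modified Illumina MiSeq flow-cell. Five of these buffer/ATP cycles ran, separated by NaOH stripping and re-annealing. The fluorescence ratio per cluster is summed target-cycle over summed buffer-cycle Cy3 intensity, averaged per switch-domain sequence; clusters outside 100-1000 RFU were removed.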
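Further: ATP exposure 15 min at 22 °C before imaging.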

TGTCCTTAAA
switch fluorescence ratio: 0.9898 ± 0.0039

TGTCGCGTAG
switch fluorescence ratio: 0.993 ± 0.034

TGTCGCTCGT
switch fluorescence ratio: 0.992 ± 0.043

TGTCGTCGGG
switch fluorescence ratio: 0.995 ± 0.026

TGTCGTTGGA
switch fluorescence ratio: 0.998 ± 0.043

TGTCGTTTTT
switch fluorescence ratio: 1.01 ± 0.039

TGTCTAGTTA
switch fluorescence ratio: 0.972 ± 0.0041

TGTCTCCCTT
switch fluorescence ratio: 1.007 ± 0.0074

TGTGAAAGTG
switch fluorescence ratio: 0.982 ± 0.041

TGTGAATCAG
switch fluorescence ratio: 1.018 ± 0.0075

TGTGACAGTT
switch fluorescence ratio: 1.09 ± 0.1

TGTGACGGAC
switch fluorescence ratio: 1.12 ± 0.015

TGTGACTCGG
switch fluorescence ratio: 0.978 ± 0.016

TGTGAGACTT
switch fluorescence ratio: 1.01 ± 0.052

TGTGAGGCGT
switch fluorescence ratio: 0.993 ± 0.0036

TGTGATTAGG
switch fluorescence ratio: 0.996 ± 0.03

TGTGCCAGGG
switch fluorescence ratio: 1.06 ± 0.024

TGTGCCTGTT
switch fluorescence ratio: 1.008 ± 0.0018

TGTGGAAAGA
switch fluorescence ratio: 0.992 ± 0.054

TGTGGCAAAA
switch fluorescence ratio: 1.015 ± 0.01

TGTGGCACGG
switch fluorescence ratio: 0.966 ± 0.018

TGTGGCATGA
switch fluorescence ratio: 0.9736 ± 0.0058

TGTGGCCCAC
switch fluorescence ratio: 0.989 ± 0.017

TGTGGCGGTT
switch fluorescence ratio: 1.015 ± 0.0077

TGTGGGAAAA
switch fluorescence ratio: 1.02 ± 0.048

TGTGGGATCG
switch fluorescence ratio: 0.97 ± 0.02

TGTGGGGGAA
switch fluorescence ratio: 1.2 ± 0.31

TGTGGGGGTC
switch fluorescence ratio: 0.965 ± 0.042

TGTGGGGTGG
switch fluorescence ratio: 0.999 ± 0.025

TGTGGGTCGG
switch fluorescence ratio: 0.968 ± 0.026

TGTGGGTGGT
switch fluorescence ratio: 1.01 ± 0.018

TGTGGTAGCC
switch fluorescence ratio: 1.022 ± 0.0018

TGTGGTATGG
switch fluorescence ratio: 1.008 ± 0.0065

TGTGGTGTGC
switch fluorescence ratio: 1.01 ± 0.022

TGTGGTTGCG
switch fluorescence ratio: 1.01 ± 0.017

TGTGGTTTAC
switch fluorescence ratio: 0.978 ± 0.017

TGTGTAAGAG
switch fluorescence ratio: 0.9867 ± 0.0063

TGTGTAAGGT
switch fluorescence ratio: 1.02 ± 0.025

TGTGTATGGC
switch fluorescence ratio: 1.12 ± 0.19

TGTGTCGGTC
switch fluorescence ratio: 1.07 ± 0.085

TGTGTGCGCG
switch fluorescence ratio: 1.02 ± 0.043

TGTGTGGTGT
switch fluorescence ratio: 0.993 ± 0.036

TGTGTTAAGG
switch fluorescence ratio: 0.973 ± 0.011

TGTGTTAATA
switch fluorescence ratio: 0.966 ± 0.013

TGTGTTAGGG
switch fluorescence ratio: 0.979 ± 0.049

TGTGTTAGTA
switch fluorescence ratio: 0.9602 ± 0.0053

TGTGTTCTAG
switch fluorescence ratio: 1.005 ± 0.0046

TGTGTTGATG
switch fluorescence ratio: 1.01 ± 0.028

TGTGTTGGGA
switch fluorescence ratio: 0.98 ± 0.016

TGTGTTGGTG
switch fluorescence ratio: 1.02 ± 0.033

TGTGTTGGTT
switch fluorescence ratio: 0.9939 ± 0.0073

TGTGTTTCAA
switch fluorescence ratio: 1.03 ± 0.013

TGTGTTTCTG
switch fluorescence ratio: 1.02 ± 0.019

TGTGTTTTCT
switch fluorescence ratio: 0.9862 ± 0.003

TGTGTTTTTT
switch fluorescence ratio: 0.999 ± 0.02

TGTTAAAAAC
switch fluorescence ratio: 1.082 ± 0.0085

TGTTAAAAAT
switch fluorescence ratio: 1.01 ± 0.029

TGTTAAAATC
switch fluorescence ratio: 0.984 ± 0.058

TGTTAAAGCG
switch fluorescence ratio: 1.06 ± 0.049

TGTTAAAGGA
switch fluorescence ratio: 0.991 ± 0.022

TGTTAAATGT
switch fluorescence ratio: 1.005 ± 0.01

TGTTAAGATA
switch fluorescence ratio: 1.02 ± 0.092

TGTTACCAGC
switch fluorescence ratio: 1.01 ± 0.014

TGTTACGATA
switch fluorescence ratio: 1.1181 ± 0.00041

TGTTAGGATT
switch fluorescence ratio: 0.997 ± 0.014

TGTTAGGTGA
switch fluorescence ratio: 1.07 ± 0.011

TGTTAGTGGT
switch fluorescence ratio: 1.01 ± 0.023

TGTTATAATC
switch fluorescence ratio: 1.08 ± 0.064

TGTTATAGAT
switch fluorescence ratio: 0.987 ± 0.025

TGTTATAGTT
switch fluorescence ratio: 1.01 ± 0.055

TGTTATATAT
switch fluorescence ratio: 0.993 ± 0.032

TGTTATCAGC
switch fluorescence ratio: 1 ± 0.047

TGTTATGTCC
switch fluorescence ratio: 1 ± 0.023

TGTTATTTCA
switch fluorescence ratio: 1.02 ± 0.0065

TGTTCATATA
switch fluorescence ratio: 1.01 ± 0.021

TGTTCCGGGG
switch fluorescence ratio: 1.013 ± 0.0063

TGTTCGGCGG
switch fluorescence ratio: 1.02 ± 0.036

TGTTCTAAAG
switch fluorescence ratio: 0.997 ± 0.025

TGTTCTAGA
switch fluorescence ratio: 0.987 ± 0.053

TGTTCTGGGG
switch fluorescence ratio: 1.01 ± 0.019

TGTTGAAATC
switch fluorescence ratio: 1.01 ± 0.076

TGTTGAGCAT
switch fluorescence ratio: 1.09 ± 0.089

TGTTGCAATA
switch fluorescence ratio: 1.24 ± 0.4

TGTTGCATAG
switch fluorescence ratio: 1.01 ± 0.047

TGTTGCGTGC
switch fluorescence ratio: 1.03 ± 0.038

TGTTGGAGAA
switch fluorescence ratio: 0.988 ± 0.011

TGTTGGAGTG
switch fluorescence ratio: 1.003 ± 0.0044

TGTTGGCCAG
switch fluorescence ratio: 0.9797 ± 0.0075

TGTTGGCGGG
switch fluorescence ratio: 0.989 ± 0.015

TGTTGGGATG
switch fluorescence ratio: 1.01 ± 0.02

TGTTGGGCTC
switch fluorescence ratio: 0.989 ± 0.047

TGTTGGGGAT
switch fluorescence ratio: 0.983 ± 0.029

TGTTGGGGGC
switch fluorescence ratio: 1.03 ± 0.12

TGTTGGGTTG
switch fluorescence ratio: 0.999 ± 0.015

TGTTGGTTAG
switch fluorescence ratio: 0.989 ± 0.014

TGTTGGTTGC
switch fluorescence ratio: 0.988 ± 0.033

TGTTGTATAA
switch fluorescence ratio: 1.2 ± 0.26

TGTTGTATAT
switch fluorescence ratio: 1 ± 0.023

TGTTGTCAAG
switch fluorescence ratio: 1.01 ± 0.026

TGTTGTGCAG
switch fluorescence ratio: 0.958 ± 0.03

TGTTGTGGGG
switch fluorescence ratio: 0.96 ± 0.025

TGTTGTGGTG
switch fluorescence ratio: 1 ± 0.033

TGTTGTTGTA
switch fluorescence ratio: 1.015 ± 0.0081

TGTTGTTTTG
switch fluorescence ratio: 1 ± 0.042

TGTTTAATTT
switch fluorescence ratio: 1.03 ± 0.072

TGTTTAGGAG
switch fluorescence ratio: 1.014 ± 0.0078

TGTTTAGGGG
switch fluorescence ratio: 1.01 ± 0.025

TGTTTATGAC
switch fluorescence ratio: 0.9847 ± 0.0081

TGTTTATTGG
switch fluorescence ratio: 1.01 ± 0.065

TGTTTATTTA
switch fluorescence ratio: 0.983 ± 0.0018

TGTTTCATTT
switch fluorescence ratio: 0.989 ± 0.016

TGTTTCGGTT
switch fluorescence ratio: 0.943 ± 0.044

TGTTTCTATT
switch fluorescence ratio: 0.9925 ± 0.0055

TGTTTGAAAT
switch fluorescence ratio: 0.998 ± 0.034

TGTTTGAGGT
switch fluorescence ratio: 0.999 ± 0.033

TGTTTGCGAA
switch fluorescence ratio: 1.01 ± 0.045

TGTTTGCTTT
switch fluorescence ratio: 0.986 ± 0.023

TGTTTGGGGA
switch fluorescence ratio: 0.997 ± 0.018

TGTTTGGGGT
switch fluorescence ratio: 0.996 ± 0.055

TGTTTGGGTA
switch fluorescence ratio: 1 ± 0.07

TGTTTGGTCA
switch fluorescence ratio: 0.976 ± 0.065

TGTTTGGTTG
switch fluorescence ratio: 1.01 ± 0.017

TGTTTGTAGA
switch fluorescence ratio: 1.03 ± 0.018

TGTTTGTGCT
switch fluorescence ratio: 0.983 ± 0.027

TGTTTGTTAC
switch fluorescence ratio: 1.011 ± 0.0076

TGTTTGTTCG
switch fluorescence ratio: 0.986 ± 0.021

TGTTTGTTCT
switch fluorescence ratio: 0.976 ± 0.014

TGTTTGTTTG
switch fluorescence ratio: 1 ± 0.036

TGTTTTAACT
switch fluorescence ratio: 1.01 ± 0.017

TGTTTTACTG
switch fluorescence ratio: 0.996 ± 0.015

TGTTTTAGTG
switch fluorescence ratio: 0.994 ± 0.021

TGTTTTATAA
switch fluorescence ratio: 0.995 ± 0.024

TGTTTTCATT
switch fluorescence ratio: 0.973 ± 0.044

TGTTTTCTTT
switch fluorescence ratio: 0.987 ± 0.019

TGTTTTGGCA
switch fluorescence ratio: 0.9963 ± 0.0052

TGTTTTGGG
switch fluorescence ratio: 0.992 ± 0.042

TGTTTTTAA
switch fluorescence ratio: 1 ± 0.062

TTAAAAAACG
switch fluorescence ratio: 1.04 ± 0.052

TTAAAAAAGA
switch fluorescence ratio: 0.998 ± 0.013

TTAAAAAATG
switch fluorescence ratio: 1.03 ± 0.042

TTAAAAATAC
switch fluorescence ratio: 1.06 ± 0.025

TTAAAAATAT
switch fluorescence ratio: 1.02 ± 0.053

TTAAAAATTT
switch fluorescence ratio: 0.976 ± 0.025

TTAAAAGAT
switch fluorescence ratio: 0.998 ± 0.035

TTAAAAGCGA
switch fluorescence ratio: 0.974 ± 0.023

TTAAAAGCGG
switch fluorescence ratio: 1.03 ± 0.013

TTAAAAGGAG
switch fluorescence ratio: 1.01 ± 0.044

TTAAAAGGG
switch fluorescence ratio: 0.9979 ± 0.007

TTAAAAGGGA
switch fluorescence ratio: 1.02 ± 0.07

TTAAAAGTGT
switch fluorescence ratio: 0.999 ± 0.026

TTAAAATGTA
switch fluorescence ratio: 0.992 ± 0.03

TTAAAATGTG
switch fluorescence ratio: 1.04 ± 0.059

TTAAACCCGC
switch fluorescence ratio: 1.08 ± 0.019

TTAAAGCGGG
switch fluorescence ratio: 1.01 ± 0.012

TTAAAGGGGC
switch fluorescence ratio: 1.03 ± 0.06

TTAAAGTAGC
switch fluorescence ratio: 1.02 ± 0.017

TTAAAGTCAT
switch fluorescence ratio: 1.007 ± 0.0072

TTAAATAATT
switch fluorescence ratio: 0.992 ± 0.019

TTAAATCGGC
switch fluorescence ratio: 0.991 ± 0.043

TTAAATGTTG
switch fluorescence ratio: 1.01 ± 0.059

TTAAATTCGC
switch fluorescence ratio: 0.999 ± 0.0094

TTAAATTGCG
switch fluorescence ratio: 0.994 ± 0.027

TTAACAGTGT
switch fluorescence ratio: 0.964 ± 0.035

TTAACATGGG
switch fluorescence ratio: 1 ± 0.033

TTAACGCAA
switch fluorescence ratio: 3.6 ± 2

TTAACGCCTC
switch fluorescence ratio: 1.0315 ± 0.001

TTAACGGGAG
switch fluorescence ratio: 0.99 ± 0.019

TTAACGGGCT
switch fluorescence ratio: 1.01 ± 0.048

TTAACGGTGT
switch fluorescence ratio: 1.004 ± 0.005

TTAACTGCAC
switch fluorescence ratio: 1.44 ± 0.056

TTAAGAAAAA
switch fluorescence ratio: 1.01 ± 0.016

TTAAGAAGAC
switch fluorescence ratio: 1.04 ± 0.018

TTAAGAATGG
switch fluorescence ratio: 1.01 ± 0.014

TTAAGAATTC
switch fluorescence ratio: 0.954 ± 0.021

TTAAGACGTA
switch fluorescence ratio: 1.03 ± 0.063

TTAAGACGTC
switch fluorescence ratio: 1.01 ± 0.0011

TTAAGAGGC
switch fluorescence ratio: 1.01 ± 0.2

TTAAGAGGTC
switch fluorescence ratio: 0.979 ± 0.018

TTAAGAGTCT
switch fluorescence ratio: 1.02 ± 0.049

TTAAGAGTTA
switch fluorescence ratio: 1.006 ± 0.01

TTAAGATTCT
switch fluorescence ratio: 0.993 ± 0.037

TTAAGATTTT
switch fluorescence ratio: 0.9935 ± 0.0053

TTAAGCATTT
switch fluorescence ratio: 1.021 ± 0.0047

TTAAGCTTAG
switch fluorescence ratio: 1.01 ± 0.015

TTAAGCTTTT
switch fluorescence ratio: 0.989 ± 0.012

TTAAGGAAAA
switch fluorescence ratio: 1.04 ± 0.071

TTAAGGACGG
switch fluorescence ratio: 0.994 ± 0.065

TTAAGGGGCA
switch fluorescence ratio: 1.02 ± 0.035

TTAAGGGGG
switch fluorescence ratio: 1.03 ± 0.012

TTAAGGGGGG
switch fluorescence ratio: 1 ± 0.031

TTAAGGTATT
switch fluorescence ratio: 1.07 ± 0.12

TTAAGGTGTA
switch fluorescence ratio: 1.1 ± 0.064

TTAAGTCATT
switch fluorescence ratio: 0.986 ± 0.039

TTAAGTCCA
switch fluorescence ratio: 0.995 ± 0.038

TTAAGTGAGG
switch fluorescence ratio: 1.02 ± 0.016

TTAAGTGATT
switch fluorescence ratio: 0.999 ± 0.025

TTAAGTTGTG
switch fluorescence ratio: 0.9827 ± 0.0013

TTAAGTTTGG
switch fluorescence ratio: 1.01 ± 0.027

TTAATAGAGT
switch fluorescence ratio: 1 ± 0.018

TTAATAGATG
switch fluorescence ratio: 1 ± 0.029
